Data published in patent US20230381316A1 (published 2023).

Legend:
[1] = target: T1, purified recombinant human PSMA protein (PSMA extracellular domain, baculovirus-insect cell expression) (UniProt Q04609 44-750); assay: SPR (Biacore); Bivalent fit
[2] = target: T1, purified recombinant human PSMA protein …; assay: SPR (Biacore)
[3] = target: PSMA; assay: previously reported; previously reported value
[4] = target: T1, purified recombinant human PSMA protein …; assay: SPR (Biacore); Langmuir fit

T1 sequence (Q04609 44-750): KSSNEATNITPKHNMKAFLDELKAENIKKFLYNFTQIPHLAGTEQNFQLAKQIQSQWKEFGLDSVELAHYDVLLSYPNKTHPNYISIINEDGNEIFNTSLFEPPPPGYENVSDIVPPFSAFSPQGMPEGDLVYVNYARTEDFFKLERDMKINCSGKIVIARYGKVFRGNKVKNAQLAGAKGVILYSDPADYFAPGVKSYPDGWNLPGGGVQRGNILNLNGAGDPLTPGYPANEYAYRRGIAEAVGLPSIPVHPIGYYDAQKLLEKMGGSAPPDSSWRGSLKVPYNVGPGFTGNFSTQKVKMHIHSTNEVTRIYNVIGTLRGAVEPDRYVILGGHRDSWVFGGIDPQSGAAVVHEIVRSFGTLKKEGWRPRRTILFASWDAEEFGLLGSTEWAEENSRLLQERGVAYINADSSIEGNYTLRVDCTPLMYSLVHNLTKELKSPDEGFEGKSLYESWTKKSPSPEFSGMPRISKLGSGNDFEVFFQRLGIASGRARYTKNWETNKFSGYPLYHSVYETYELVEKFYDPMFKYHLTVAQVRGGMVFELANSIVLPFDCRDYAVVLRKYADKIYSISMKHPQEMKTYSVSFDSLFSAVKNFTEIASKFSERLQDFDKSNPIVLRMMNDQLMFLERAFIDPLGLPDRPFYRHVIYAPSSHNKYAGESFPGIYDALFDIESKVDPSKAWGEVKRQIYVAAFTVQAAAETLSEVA

B1: anti-PSMA mouse monoclonal antibody #1377 (antibody, V domains shown)
VH: VQLQQPGAALVRPGASVRLSCKASGYSFTYYWMNWVMQRPGQGLEWIGMIHPSDSETRLSQKFRDKATLTVDKSSSTVYMQLNSPTSDDSAVYYCARDGNFPYYALDYWGQGTSVTVSS
VL: DVVLTQAPLSLPVSLGDQASISCRSSQSLEYSNGNTYLHWYLQKPGQSPELLIYTVSNRFSGVPDRFSGSGSGTDFTLKIHRVEAEDLGVYFCSQSTHVPTFGGGTKLEIKR
Kd [1]: 18.6 nM | Kd [2]: 18.6 nM

B2: ScFv Fc 446 (antibody, V domains shown)
VH: VKLQESGPGLVAPSQSLSITCTVSGFSLTDYGVSWIRQPPGKGLEWLGVIWSDGNTYYNSPLKSRLSINKDNSKSQVFLKMNSLQTDDSAMYYCARHKVYTMDYWGQGTSVTVSS
VL: TVLTQSPAIMSASPGEKVTMTCRASSSVSSSYLHWYQQKSSASPKLWIYRTSNLASGVPARFSGSGSGTSYSLTISSLEAEDAATYYCQQYSGYPLTFGAGTKLELKR
Kd [1]: 1160 nM

B3: anti-PSMA mouse monoclonal antibody #1207 (antibody, V domains shown)
VH: VKLQQSGPGLVKPSQSLSLTCAVTGYSITSDYAWNWIRKFPGNKLEWMGYISYSGRTTYNPSLESRISITRDTSKNQFFLQLNSVTTEDTATYYCARCYYGSSSRWYGMDYWGRGTSVAVSS
VL: IVLTQSPAIMSASPGVKVTMTCRASSSVDSSYLHWYQQKSGASPQVWIYSTSNLASGVPARFSGSGSGTSYSLTISSVEAEDAATYYCQQYSGYPLTFGGGTKLEIKR
Kd [1]: 8.13 nM | Kd [2]: 8.13 nM

B4: anti-PSMA mouse monoclonal antibody #1366 (antibody, V domains shown)
VH: VKLQESGPGLVAPSQSLSITCTVSGFSLTDYGVSWIRQPPGKGLEWLGVIWSDGNTYYNSPLKSRLSINKDNSKSQVFLKMNSLQTDDSAMYYCARHKVYTMDYWGQGTSVTVSS
VL: TVLTQSPAIMSASPGEKVTMTCRASSSVSSSYLHWYQQKSSASPKLWIYRTSNLASGVPARFSGSGSGTSYSLTISSLEAEDAATYYCQQYSGYPLTFGAGTKLELKR
Kd [1]: 295 nM | Kd [2]: 295 nM

B5: ScFv Fc 445 (antibody)
chain: VQLQQPGAALVRPGASVRLSCKASGYSFTYYWMNWVMQRPGQGLEWIGMIHPSDSETRLSQKFRDKATLTVDKSSSTVYMQLNSPTSDDSAVYYCARDGNFPYYALDYWGQGTSVTVSSGGGGSGGGGSGGGGSDVVLTQAPLSLPVSLGDQASISCRSSQSLEYSNGNTYLHWYLQKPGQSPELLIYTVSNRFSGVPDRFSGSGSGTDFTLKIHRVEAEDLGVYFCSQSTHVPTFGGGTKLEIKR
Kd [1]: 2.55 nM

B6: J591 (antibody, V domains shown)
VH: EVQLQQSGPELVKPGTSVRISCKTSGYTFTEYTIHWVKQSHGKSLEWIGNINPNNGGTTYNQKFEDKATLTVDKSSSTAYMELRSLTSEDSAVYYCAAGWNFDYWGQGTTLTVSS
VL: DIVMTQSHKFMSTSVGDRVSIICKASQDVGTAVDWYQQKPGQSPKLLIYWASTRHTGVPDRFTGSGSGTDFTLTITNVQSEDLADYFCQQYNSYPLTFGAGTMLDLK
Kd [3]: 1.83 nM

B7: ScFv Fc 444 (antibody, V domains shown)
VH: VQLQQSGPELEKPGASVKMSCKASGYSFTGYNVNWVRQNNGKSLEWIGNIDPLHGGTTYNQKFKAKATLTVDRSSSTAYLQLKNLTSEDSAVYYCARSSRFDYWGQGTTLTVSS
VL: DIVMTQSHKFMSTSVGDRVNITCKASQDVGTAVAWYQQKPGQSPKLLIYWASTRHTGVPDRFTGSGSGTDFTLTISNVQSEDLADYFCHQFTSYPFTFGSGTSLEMKR
Kd [1]: 4.35 nM

B8: anti-PSMA mouse monoclonal antibody #219 (antibody, V domains shown)
VH: VQLQQSGPELEKPGASVKMSCKASGYSFTGYNVNWVRQNNGKSLEWIGNIDPLHGGTTYNQKFKAKATLTVDRSSSTAYLQLKNLTSEDSAVYYCARSSRFDYWGQGTTLTVSS
VL: DIVMTQSHKFMSTSVGDRVNITCKASQDVGTAVAWYQQKPGQSPKLLIYWASTRHTGVPDRFTGSGSGTDFTLTISNVQSEDLADYFCHQFTSYPFTFGSGTSLEMKR
Kd [4]: 2.64 nM | Kd [2]: 2.64 nM

B9: anti-PSMA mouse monoclonal antibody #1352 (antibody, V domains shown)
VH: VKLQQSGPELEKPGASVKISCKASGYSFTGYNVNWVKQSNGKSLEWIGNIDPYHGGTTYNQKFEAKATLTVDKSSSTAYMQLKSLTSEDSAVYYCARSSRFDYWGQGTTLTVSS
VL: DIVMTQSHKFMSTSVGDRVNITCKASQDVGTAVAWYQQKPGQSPKFLIYWASTRHTGVPDRFTGSGSGTDFTLTISNVQSEDLADYFCHQYTSYPFTFGSGTKLEMKR
Kd [1]: 1.99 nM | Kd [2]: 1.99 nM
